In patent US20120156803A1:

Assays:
[1] = molecular target: S. frugiperda (FAW) BBMV proteins / receptor(s) (brush border membrane vesicles from wild type, Cry1Fa-sensitive larvae) (Spodoptera frugiperda); experiment: pull-down competition on FAW BBMVs; ^125I-Cry1Fa remaining bound with 1000 nM unlabeled Cry1Ab competitor
[2] = molecular target: S. frugiperda (FAW) BBMV proteins / receptor(s) (brush border membrane vesicles from wild type, Cry1Fa-sensitive larvae) (Spodoptera frugiperda); experiment: pull-down competition on FAW BBMVs; ^125I-Cry1Fa remaining bound with 1000 nM unlabeled Cry1Ca competitor
[3] = molecular target: BBMVs prepared from Cry1Fa-resistant S. frugiperda (rFAW) larvae (Spodoptera frugiperda); experiment: pull-down assay on rFAW BBMVs, no competitor, phosphor-imaging densitometry
[4] = molecular target: O. nubilalis (ECB) BBMV proteins (brush border membrane vesicles from wild type, Cry1Fa-sensitive larvae) (Ostrinia nubilalis); experiment: saturation binding of radioligand (0.5-20 nM) to 150 ug/mL ECB BBMV proteins, centrifugation and gamma counting
[5] = molecular target: S. frugiperda (FAW) BBMV proteins / receptor(s) (brush border membrane vesicles from wild type, Cry1Fa-sensitive larvae) (Spodoptera frugiperda); experiment: pull-down assay on FAW BBMVs, no competitor, phosphor-imaging densitometry
[6] = molecular target: O. nubilalis (ECB) BBMV proteins (brush border membrane vesicles from wild type, Cry1Fa-sensitive larvae) (Ostrinia nubilalis); experiment: pull-down assay on ECB BBMVs, no competitor, phosphor-imaging densitometry
[7] = molecular target: BBMVs prepared from Cry1Fa-resistant O. nubilalis (rECB) larvae (Ostrinia nubilalis); experiment: pull-down assay on rECB BBMVs, no competitor, phosphor-imaging densitometry
[8] = molecular target: BBMVs prepared from Cry1Fa-resistant O. nubilalis (rECB) larvae (Ostrinia nubilalis); experiment: pull-down competition on rECB BBMVs; ^125I-Cry1Fa remaining bound with 1000 nM unlabeled Cry1Fa competitor
[9] = molecular target: S. frugiperda (FAW) BBMV proteins / receptor(s) (brush border membrane vesicles from wild type, Cry1Fa-sensitive larvae) (Spodoptera frugiperda); experiment: pull-down competition on FAW BBMVs; ^125I-Cry1Fa remaining bound with 1000 nM unlabeled Cry1Fa competitor
[10] = molecular target: O. nubilalis (ECB) BBMV proteins (brush border membrane vesicles from wild type, Cry1Fa-sensitive larvae) (Ostrinia nubilalis); experiment: pull-down competition on ECB BBMVs; ^125I-Cry1Fa remaining bound with 1000 nM unlabeled Cry1Fa competitor

## Cry1Ab core toxin protein (from UniProt P0A370 29-607) (ligand)
[1]
  Relative Amounts of radio-iodinated Cry1Fa Protein Bound: -4%

## Cry1Ca core toxin protein (from UniProt P0A373) (ligand)
[2]
  Relative Amounts of radio-iodinated Cry1Fa Protein Bound: 50%

## ^125I radiolabeled fluorescein-Cry1Fa core toxin protein (trypsin-truncated) (from UniProt Q03746 1-603) (ligand)
[3]
  Relative Amounts of radio-iodinated Cry1Fa Protein Bound: 10%
[4]
  Bmax: 37 fmol/mg
  Kd: 11 nM
[5]
  Relative Amounts of radio-iodinated Cry1Fa Protein Bound: 100%
[6]
  Relative Amounts of radio-iodinated Cry1Fa Protein Bound: 100%
[7]
  Relative Amounts of radio-iodinated Cry1Fa Protein Bound: 64%

## non-radioactive (unlabeled) Cry1Fa core toxin protein (trypsin-truncated) (from UniProt Q03746 1-603) (ligand)
[8]
  Relative Amounts of radio-iodinated Cry1Fa Protein Bound: 51%
[9]
  Relative Amounts of radio-iodinated Cry1Fa Protein Bound: 0%
[10]
  Relative Amounts of radio-iodinated Cry1Fa Protein Bound: 31%
